Substrate in data set [1]: C=C(C)CCOP(=O)(O)O
Kind of data set: purified protein, by the assay type. The conditions noted are these: other: substrate of N. tabacum IPK; pH 7.5, 30° C.; pH 7.5; 30.0 °C.

Substrate in data set [2]: CC(C)=CCC/C(C)=C/COP(=O)(O)O
Kind of data set: NtIPK kinetics, lactate dehydrogenase/pyruvate kinase coupled assay. The settings on record: other: substrate of N. tabacum IPK, pH 7.5, 30° C. Type of data set: biochemical.

Substrate in data set [3]: CC(C)=CCOP(=O)(O)O
The description is as above. It is filed as biochemical. The conditions noted are these: other: substrate of N. tabacum IPK, pH 7.5, 30° C.

Substrate in data set [4]: CC(C)=CCC/C(C)=C/CC/C(C)=C/CO[P@@](=O)(O)OP(=O)(O)O
Kind of data set: purified protein, by the assay type. The settings on record: 100 mM TAPS pH 8.5, 10 mM MgCl2, 37° C., means ± SD, n = 3, pH 8.5, 37.0 °C.

Substrate in data set [5]: CC(C)=CCOP(=O)(O)OP(=O)(O)O
Kind of data set: purified protein, by the assay type. The settings on record: 100 mM TAPS pH 8.5, 10 mM MgCl2, 37° C., means ± SD, n = 3, pH 8.5, 37.0 °C.

From patent US12305177B2, “Methods and platforms for sustainable high yield terpenoid production” (Purdue Research Foundation, priority 2019, dated 2025) come the findings set out here.

B1: N. tabacum IPK (Nicotiana tabacum) (protein)
chain: MEQNKASAPVPPTKRVRCIVKLGGAAITCKNKLETIDEENLTEVSSQLRQALIPNSDSAKILGMDWSKRPGQSEPPSFVDEFSDQPVADSESFIVVHGAGSFGHFQASKSGVHKGGLSRPLVKAGFVATRISVTSLNLEIVRALAREGIPSIGMSPFSCGWSTCQRNMTEADISMVIKAIDAGFIPVLHGDAVLDTLQECTILSGDVIIRHLAAELKPEFVVFLTDVLGVYDRPPVEPGAVLIREIAVREDGSWSVVKPRLEDTSKPVEFTVAAHDTTGGMVTKITEAAMIAKLGIDVYITKVGAGRNGPLSESPEWNLERQHT
For the protein B1, in data set [1], the Michaelis-Menten constant (Km) – broadly, the concentration of substrate that gives half-maximal velocity – was found to be 4.0 ± 1.5 µM; the kcat (usually the maximal rate divided by the concentration of active sites) was 0.93 s⁻¹; the kcat/Km (as a rule, the second-order rate constant that governs catalysis at low substrate concentration) was 230000 M⁻¹ s⁻¹. In data set [2], the Km was 100 ± 60 µM, the turnover number (kcat) turned out to be 0.0017 ± 0.0002 s⁻¹ and the kcat/Km is 17 M⁻¹ s⁻¹. For the same protein, in data set [3], the Michaelis-Menten constant (Km) stood at 8.5 ± 2.3 µM, the turnover number (kcat) is 1.2 ± 0.06 s⁻¹ and the catalytic efficiency (kcat/Km) stood at 140000 M⁻¹ s⁻¹.

B2: A. thaliana Nudx1 (Arabidopsis thaliana) (protein)
chain: MSTGEAIPRVAVVVFILNGNSILLGRRRSSIGNSTFALPGGHLEFGESFEECAAREVMEETGLKIEKMKLLTVTNNVFKEAPTPSHYVSVSIRAVLVDPSQEPKNMEPEKCEGWDWYDWENLPKPLFWPLEKLFGSGFNPFTHGGGD
Consider B2, for which, in data set [4] (other: substrate of AtNudx1), the Km is 8.7 ± 1.6 µM, the kcat was 1.35 ± 0.06 s⁻¹ and the kcat/Km is 1.6 × 10^5 ± 0.3 M^−1 s^−1. Further, in data set [5] (other: substrate of AtNudx1), the Km was 10.7 ± 1.8 µM, the catalytic constant (kcat) stood at 1.7 ± 0.07 s⁻¹ and the kcat/Km is given as 1.6 × 10^5 ± 0.3 M^−1 s^−1.

B3: A. thaliana Nudx3 (Arabidopsis thaliana) (protein)
chain: MAEEHFDVLTKSGEKTGVSKPRGEVHRDGDYHRAVHVWIFVETTQQLLLQLRSDDKDSWPGQWDISSAGHISAGDTSLLSAQRELEEELGVKLPKDAFEKIFVFLQECVTNDGKFINNEFNDVYLVTILHPIPLEAFTLQKEEVSAVKYVPYEEYRNFLSKEDPAYVPYDVNGEYGKLFDIIRQRCQVNTEARSLSLQKQLQRYSPVTLEAKLTELSEADQKALGLIVKAAKIMDDIFYEQVWNSNPALRDWLKDHANASKLDKLKWDYFTINKSPWSSLDENEAFLSTADSAVKLLPGATKAIAGWKGLEYRAAFPVTKPPGANFYPPDMDKMEFTLWLNGLTEEQKHAATGFFSVIKRRSEANLDASDHLASSTKKLPDSNSDLYSIPYSEIYRPFLKKASEFLQKAGDLVSSPSLKKLLHSKAEAFLSNEYYESDIAWMDLDSKLDITIGPYETYEDEIFGYKATFETFIGIRDDKATADLKLFGDNLKLLEDNLPLESVYKSTDVSAAPIRVIQLIYNSGDVKGPQTVAYNLPNDEKIVKDRGTSMVMLKNVQEAKFEHILKPIAEITISKEQRGLVDFDSFFTHTICHECCHGIGPHTITLPGGQTSTVRKELQEVHSAMEEAKADIVGLWALKFLITKGLLSKSMVESMYVSFLAGCFRSIRFGLTEAHGKGQALQFNYLYEKGAFVFHEDSTFSVDFAKIEGAVESLSHEILTIQGKGDKNAATLLLNKYCTITGPLKTALENLERVKVPVDISPTFPLAEALMN
On to B3, for which, in data set [4] (other: substrate of AtNudx3), the Km stood at 58 ± 10 µM, the kcat was determined as 3.3 ± 0.3 s⁻¹ and the kcat/Km was 5.7 × 10^4 ± 0.5 M^−1 s^−1. Besides, in data set [5] (other: substrate of AtNudx3), the Michaelis-Menten constant (Km) worked out at 44 ± 8 µM, the kcat was found to be 7.1 ± 0.3 s⁻¹ and the specificity constant (kcat/Km) is given as 1.6 × 10^5 ± 0.3 M^−1 s^−1.
